The data set can be described thus: soluble on expression in E. coli; label from the status in PepcDB or PDB records.
As to “MGSDKIHHHHHHMNLQYVLLNDNSWQSQGEWQTPDTPFMSFAFWQALSDTGAIGEEAGWLPIYILVHRVESDDDFTVQQSLSSVEASIKVKQPVAVLPVFIKGHHRGEFVFDHSWAQAYAQYGLDYYPRLVTSAPYTPITGQRLWLAEGETLDAEIINTAIKGVDDIAQQVDASGWHGLFVTPEMATIATTLMPFNSHTRSAGQSHGVDSASNTSMNIASNTPVLERQGCQFLWQNKNLSQNDQLFADFEEFLATLKAKKRKTIRAERRKVAEQGITCQRKCGDEIIESDWKTFYHCYVMTYAVRGQQPYLSIDFFEALAQNMAEHVMLAQALDAGGEIIASSLFLYDKPDNKMATLYGRYWGALGEYDSLHFELCYYQGIEFAIEQGLHYFDPGTQGEHKLIRGFIPTTTHSLHRIYDARFVPAIADFCHKDRLHMAQYREQAFEALPFNIDNMPTFDNNE”, the “soluble on expression in E. coli” value is reported as “not soluble”.

For “MTARNPLEAQAWALLEAVYDPELGLDVVNLGLIYDLVVEPPRAYVRMTLTTPGCPLHDSLGEAVRQALSRLPGVEEVEVEVTFEPPWTLARLSEKARRLLGWG”, the “soluble on expression in E. coli” value is reported as “soluble”.

As to “MSVVPVADVLQGRVAVDSEVTVRGWVRTRRDSKAGISFLAVYDGSCFDPVQAVINNSLPNYNEDVLRLTTGCSVIVTGKVVASPGQGQQFEIQASKVEVAGWVEDPDTYPMAAKRHSIEYLREVAHLRPRTNLIGAVARVRHTLAQALHRFFNEQGFFWVSTPLITASDTEGAGEMFRVSTLDLENLPRNDQGKVDFDKDFFGKESFLTVSGQLNGETYACALSKIYTFGPTFRAENSNTSRHLAEFWMLEPEVAFANLNDIAGLAEAMLKYVFKAVLEERADDMKFFAERVDKDAVSRLERFIEADFAQVDYTDAVTILENCGRKFENPVYWGVDLSSEHERYLAEEHFKAPVVVKNYPKDIKAFYMRLNEDGKTVAAMDVLAPGIGEIIGGSQREERLDVLDERMLEMGLNKEDYWWYRDLRRYGTVPHSGFGLGFERLIAYVTGVQNVRDVIPFPRTPRNASF”, the “soluble on expression in E. coli” value is “soluble”.

Consider “MSEIVIRHAETRDYEAIRQIHAQPEVYCNTLQVPHPSDHMWQERLADRPGIKQLVACIDGDVVGHLTIDVQQRPRRSHVADFGICVDSRWKNRGVASALMREMIEMCDNWLRVDRIELTVFVDNAPAIKVYKKFGFEIEGTGKKYALRNGEYVDAYYMARVK”, for which the “soluble on expression in E. coli” value is given as “not soluble”.

As to “EVQDVNDSSWKEFVLESEVPVMVDFWAPWCGPCKLIAPVIDELAKEYSGKIAVYKLNTDEAPGIATQYNIRSIPTVLFFKNGERKESIIGAVPKSTLTDSIEKYL”, the “soluble on expression in E. coli” value is reported as “soluble”.

As for “MGSDKIHHHHHHAEEKNLSEQWPVVASYQWAGQDSVVVCDLSLLKDTVDLPFSFFLKDFQIIKLDNRDEAMVGENNLCVSENYILVYGSVYELHPCRLFTKKGEFVTNIGAIGQGPGEYRAVYKAEIDEKHNCIYLMPFANSNAIYVYDLAGKPLRSIPLHQPVSKAVFKVDADKRELTVGALPFTGYPFVAWVQDFEGHLLDSVPAARHLSVLPDYSNEVMYGANTEVFDLYISTFFELRPDTLYHYIRSESRLKPRFTLNIGDRKRSITTFYELPQAYVGRLMVEEQVGDGMWETKSPSNFIVDKASLRGTFFRVINDFAGGMPDRLWTPWSLRNKQYIRLVEPGVLKAEIESYLSSTDGRKGKNRKKLQELCESIGEEDNSYVIYAKQKGVQ”, the “soluble on expression in E. coli” value is on record as “not soluble”.

Turning to “GSVSMSGGFLRDDHLEFALHLHRRLAEAVPDGEVIWSPYSVACALGVLAAGARATTRTELTTLLGTDPAPLLAALDRAVTDSPDLASRTVLWVSADVPVRSSFRATMHDRPDSDVRTADFRTNPEGVRATVNADIADATRGMIRELLPQGAVTPDLRAILTNALWAKARWTTPFEAHLTRAGTFRTPRGPKRVPFMHRTKTMPYATARGWRMVTLHAHDELAVDVLLPPGTNAAAVPTAPLLTALHRRSASTSVELALPRFELTQPHQLVEVLAEAGVRTLFTASADLSGISTVPLYVDTVIHQARLRVDERGAEGAAATAAMMLLAGAMPPRRTIRFSVDRPFHIVVRRRGAILFLGSIADPHDPGPAQ”, the “soluble on expression in E. coli” value is “soluble”.

On to “AQARMGDSRDLCPHLDSIGEVTKEDLLLKSKGTCQSCGVTGPNLWACLQVACPYVGCGESFADHSTIHAQAKKHNLTVNLTTFRLWCYACEKEVFLEQRLAAPLLGSSSKFSEQDSPPPSHPLKAVPIAVADEGESESEDDDLKPRGLTGMKNLGNSCYMNAALQALSNCPPLTQFFLECGGLVRTDKKPALCKSYQKLVSEVWHKKRPSYVVPTSLSHGIKLVNPMFRGYAQQDTQEFLRCLMDQLHEELKEPVVATVALTEARDSDSSDTDEKREGDRSPSEDEFLSCDSSSDRGEGDGQGRGGGSSQAETELLIPDEAGRVISEKERMKDRKFSWGQQRTNSEQVDEDADVDTAMAALDQPAEAQPPSPRSSSPCRTPEPDNDAHLRSSSRPCSPVHHHEGHAKLSSSPPRASPVRMAPSYVLKKAQVLSAGSRRRKEQRYRSVISDIFDGSILSLVQCLTCDRVSTTVETFQDLSLPIPGKEDLAKLHSAIYQNVPAKPGACGDSYAAQGWLAFIVEYIRRFVVSCTPSWFWGPVVTLEDCLAAFFAADELKGDNMYSCERCKKLRNGVKYCKVLRLPEILCIHLKRFRHEVMYSFKINSHVSFPLEGLDLRPFLAKECTSQITTYDLLSVICHHGTAGSGHYIAYCQNVINGQWYEFDDQYVTEVHETVVQNAEGYVLFYRKSSEEAMRERQQVVSLAAMREPSLLRFYVSREWLNKFNTFAEPGPITNQTFLCSHGGIPPHKYHYIDDLVVILPQNVWEHLYNRFGGGPAVNHLYVCSICQVEIEALAKRRRIEIDTFIKLNKAFQAEESPGVIYCISMQWFREWEAFVKGKDNEPPGPIDNSRIAQVKGSGHVQLKQGADYGQISEETWTYLNSLYGGGPEIAIRQSVAQPLGPENLHGEQKIEAETRAV”, for which the “soluble on expression in E. coli” value is “soluble”.

“MQAKPQIPKDKSKVAGYIEIPDADIKEPVYPGPATPEQLNRGVSFAEENESLDDQNISIAGHTFIDRPNYQFTNLKAAKKGSMVYFKVGNETRKYKMTSIRDVKPTDVGVLDEQKGKDKQLTLITCDDYNEKTGVWEKRKIFVATEVK”: the “soluble on expression in E. coli” value is reported as “soluble”.

On to “DKIAIIGSRRMSVYTKNCVFSLASMLKNAHLCVVSGGALGVDITASMAAMPNTIGIFANGLDQIYPRTNEKIIKQIYENALALSEYEDDYLPKNYDFLLRNRLVIALSKAVVVAQADIKSGSMQSAKLALELNKPLYVLPQRLGESTATNLLLKENKAKLICDFKEFVSEFASID”, for which the “soluble on expression in E. coli” value is “not soluble”.

For “MGSDKIHHHHHHMIDPDDMDHCRHAIREGSYSFHAASKLLPSSVRDPALALYAFCRLADDEVDFGADKPAAVLALSERLEHAYQGRPRNHPTDRAFTAMIEEFDMPRALPEALLEGLAWDGMERRYATLSDLRSYSARVASAVGAMMCVLMRVRDEQALARACDLGVAMQLTNIARDVGEDAAERRLYLPTDWLEEEGIDIERLFTSPVSSPRLKRLTKRLLAEAHKLYLKSEPGIGRLPLAARPGIFAARHCYDAIGRNLAQHGYDNVNRRATTTGGHKMRLLGLSIVRAGLASILPESPVIFARPLPETAFLVEAAAHPAPNKDAWSDPLLSVLSQLKAQDRPHAAE”, the “soluble on expression in E. coli” value is “not soluble”.

In the case of “MSDSTQMEANAAINEIKKRTRKLDQSLQMRFCADQFFIGNHCTKLASGKSIIISQNSKNRICLRFFMAADPLVGYTGRDFGIAFNQIDHISLKDEQQENPAVLICTLNLSSYTKMCKLQTGLKDVVEKPFLYNKSLARNLTFILKPWNDDPDTFVKISYNDEHREYVHSYDYDVAKSLMFKEVQAVWEQSLKEQLQRRHQTGRVYLTSQLSEMTPREWVQFLADQKLSKIVCHNGSIQYARVEDNPHGRKHTAVATNGFDHRGTRVLNSFGKAHASLATQEKSYAKKRKLTEQSLKLIYRNDRSVWLEGSCAKNLKMPKINSEPNMGEFMGWPDMDNAMTHPTSNFENEDVMKSTKQPNDFVSFEQLQAPPPVLQRQNGAIYSTQSVAFTHISGNDGVEDLTEKISHLGEEAYNIDMANALHAFSDNWHYEIHPNTVHNASFEQLHIGDGNSSIGTIGFNPLEPYPQSSFPQSNNWQQAHGDFTFPQVSFPNTQQGSCLPSTPTAALPPTRPVVEKIPPDTQLFTFPPSGSCTTGMDPVVLLVKDIKTLDRKEFLNDSVMAFMLNYIAFMLSSELMKSVHMCNTFLFVNLTRLLPPLCFSKRRPIEPEHIKIVKDNCPRVLRWTRKFDVLAKDYIIIPINEDLHWLVIAVINPSGAIVDMSNEEASRAAPKCYIVFFDPLSGLDPSKKNHMCHCIKIYLAQLYENTKAPGMKFASKNPTIYDEERVVVTRAENTPIQDNFYDCGLYVLHFIEGLFCYPNRPVNVNDFPNFDWSKFFPEANKMCDLMRDKVYNLILQQADKPARSRLAKFERENKCGLSREGALRKARRHSAVNERRTKRHRDYYARHYSLSPPHRNVMNDDPTFMNPRGLAEMPITRLVRRLRIPEDNFPIAY”, the “soluble on expression in E. coli” value is reported as “not soluble”.

Consider “GMSSDVQKGDNLETPGARDLLLQTASNIMREGDVVDISLSELSLRSGLNSALVKYYFGNKAGLLKALLDRDMENIVKSVDALLAKDDMSPEAKLRRHISKCIDTYYDYPYLNRLLMRLVRDSDEAEAKRIADQYLLPLHRAYNRFIGEGVKAGVFRPINPQLFYFTVTGAADRFFSARLVLKHCFDQDTLTEQLRDSYREHTVDFIMAGILAH”, for which the “soluble on expression in E. coli” value is “soluble”.

Consider “MGSDKIHHHHHHMPRSPSSQYLAIESLSRYAREERESALGIIRNVLQMSDIAPGRFNAAMQAVAMHGRIALHFHPDRFDSRGLTVAEGLLQDGRYRCQFETHISSGLLSPEIGGARDHWERQFFRELTTDIAARPKYGALDLLLAPNGPAPRFGSCYFLTKPEVLSRATFCFNDSYRNPRDKGTADAFEMVMAALLTESFERRYALGEHGLAPAKLVERLVSTLGEDIVMRFERGLSGNLDHYIEAQIHGPLSLAEDMEALVADPSFRGTEIEPLLRSIAERYQIALYWHSGLCLDVEHVVRDFRGAGMPSLAQRLAIDGNVTAYAIGVAAREVSRFPTRWRARGHKTEVLSELKWLWHLLVRYGAARDERETSFMLDESAPLQENVQAEPGGNDATCVQGTCKEEGFEASVTTEGAHTADAAAAVKDNSAS”, for which the “soluble on expression in E. coli” value is on record as “not soluble”.

In the case of “MIFYFSGTGNSKWIANQLSKEQQEDLFFIPDAWKNDTWEFSLREDEKIGFVFPVYSWAPPVIVQEFIRKLVLKGYQQQYLFFVCSCGDDTGLTRQVMEKALAARGWRCNAGFSVIMPNNYVLFLGFDVDSKELEKKKLAEAVPALEKVSRLITGRETVFACKEGSLPFIKTRIINPLFVRYQMSPKPFHATSECIGCKRCEKSCPVGNITMKERRPVWGKNCTACLACYHVCPQHAVQYGKKTKGKGHYFNPDSAYLEHHHHHH”, the “soluble on expression in E. coli” value is on record as “soluble”.

Regarding “MMPYILVFMVCIFLTSISSRKKIIPLLLSCLILSLFAGFRDKNIGSDTDFYPHWYISEIRYIHNLIDLITIETERNLDKGYLFLYWIASWIGNQ”, the “soluble on expression in E. coli” value was “not soluble”.

Turning to “GMHLKEKITTIIQGQRTGVLSTVRNDKPHSAFMMFFHEDFVLYVATDRQSKKITDIENNPNVHVLLGREGKKLDEDYIEVEGLASIEEDSTLKNKFWNNSLKRWLLRPEDPNYVLIKINPDTIYYIDGAGTTEPEFLRL”, the “soluble on expression in E. coli” value is on record as “soluble”.

Turning to “MKRSHLENALNYALENSETAYNEMFLECDKQFILESWLNDFDLTKDYNETMHLVFSIKDKPDEETMQGLLHSTWESLKIRLPEYKFALVPHAHQDHAHIHCFINKTNQLTRRRLRFKGHEDCKEFFNELRSEFAYRLNDHLLSEEYLYVNEPKLKELDNIKQQLQDLEKEEKALEQIKSPQDEWDLNKALQSEYLQELKYKNKAKALDIQNNHSTPLKQKISEFKIALFNHKDTSDDEKEQLDIDRIDKRKPVSEHLKNTNKHELYELLGFYQKELDKKQNHSAFKNFAILNGLDRDFERETNGYSVLKKKEMLLNKLEHLDKRLLDKNSHLLLAQ”, the “soluble on expression in E. coli” value was “not soluble”.

As for “MNNRSAVRILRLPAVIQKTGMARATIYDWLNPKSPRYDATFPKKRMLGVKSVGWIEAEIDEWLSQRCKLI”, the “soluble on expression in E. coli” value was “soluble”.

Values taken from the DeepSol protein solubility set.
